Reference: patent publication US20250326826A1

What was measured:
Assay in all cases: cell-based or functional assay
[1] = target: VEGF (soluble stimulus added to cell cultures)
[2] = target: Human VEGF (dendritic cell assay) (human) (UniProt P15692)
[3] = target: bFGF (soluble stimulus added to cell cultures)

Sequence of Human VEGF (dendritic cell assay) (human) (P15692 other isoform, or with tags, fused parts or gaps limits assumed): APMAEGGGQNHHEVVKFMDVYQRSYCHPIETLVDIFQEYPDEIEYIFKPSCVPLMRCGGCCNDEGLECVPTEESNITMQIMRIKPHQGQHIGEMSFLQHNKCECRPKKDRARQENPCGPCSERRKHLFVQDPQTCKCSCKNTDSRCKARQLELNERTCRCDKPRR

Nb-Neg (VHH) showed an IC50, proliferation of HDMEC cells +VEGF (5 ng/ml) [1] of over 6 µM, a PD1 expression (%) in CD8+ cells treated with VEGF, VHH 1 µg/mL [1] of 68% and a PD1 expression (%) in CD8+ cells treated with VEGF, VHH 5 µg/mL [1] of 67%. For the same substance, the PD1 expression (%) in CD8+ cells treated with VEGF, VHH 10 µg/mL [1] was 65%, the average of nodes of the HDMEC network on Matrigel, VEGF 100 ng/mL, VHH 150 nM (nodes per field) [1] was 41 and the CD86 (MFI) on dendritic cells +VEGF +LPS, VHH 1 µg/mL [2] was 1980 MFI. It also gave a CD86 (MFI) on dendritic cells +VEGF +LPS, VHH 5 µg/mL [2] of 2050 MFI, a CD86 (MFI) on dendritic cells +VEGF +LPS, VHH 10 µg/mL [2] of 2000 MFI and an MHCII (MFI) on dendritic cells +VEGF +LPS, VHH 1 µg/mL [2] of 5210 MFI. It also gave an MHCII (MFI) on dendritic cells +VEGF +LPS, VHH 5 µg/mL [2] of 5140 MFI, an MHCII (MFI) on dendritic cells +VEGF +LPS, VHH 10 µg/mL [2] of 4910 MFI and an IC50, bFGF-induced proliferation of 3T3A31 cells [3] of over 250. For the same substance, the IC50, bFGF-induced proliferation of A549 cells [3] was over 250, the IC50, bFGF-induced proliferation of B16F10 cells [3] was over 250 and the IC50, bFGF-induced proliferation of NIH3T3 cells [3] was over 250. It also gave an IC50, proliferation of HDMEC cells +bFGF (10 ng/ml) [3] of over 6 µM and an average of nodes of the HDMEC network on Matrigel, bFGF 10 ng/mL, VHH 150 nM (nodes per field) [3] of 40.
